Measurements as given in the Human Domainome abundance scans (Beltran et al. 2025).
± gives the uncertainty stated by the source.

B1: Friend leukemia integration 1 transcription factor, residues 116 to 197; numbered along this chain, Q01543 (parent)
chain: NMTTNERRVIVPADPTLWTQEHVRQWLEWAIKEYSLMEIDTSFFQNMDGKELCKMNKEDFLRATTLYNTEVLLSHLSYLRES

Variants of: B1
Assay: abundance fitness (aPCA) (normalised: wild type 0, dead -1); higher = more abundant; growth selection in yeast, the domain comes from the species named
Details: Homo sapiens

Variant | abundance fitness
NMTTNERRVIVPAFPTLWTQEHVRQWLEWAIKEYSLMEIDTSFFQNMDGKELCKMNKEDFLRATTLYNTEVLLSHLSYLRES [D14F] | -0.517 ± 0.22
NMTTNERRVIVPAEPTLWTQEHVRQWLEWAIKEYSLMEIDTSFFQNMDGKELCKMNKEDFLRATTLYNTEVLLSHLSYLRES [D14E] | 0.096 ± 0.12
NMTTNERRVIVPACPTLWTQEHVRQWLEWAIKEYSLMEIDTSFFQNMDGKELCKMNKEDFLRATTLYNTEVLLSHLSYLRES [D14C] | -0.164 ± 0.15
NMTTNERRVIVPAAPTLWTQEHVRQWLEWAIKEYSLMEIDTSFFQNMDGKELCKMNKEDFLRATTLYNTEVLLSHLSYLRES [D14A] | -0.237 ± 0.1
NMTTNERRVIIPADPTLWTQEHVRQWLEWAIKEYSLMEIDTSFFQNMDGKELCKMNKEDFLRATTLYNTEVLLSHLSYLRES [V11I] | -0.019 ± 0.086
NMTTNERRVIWPADPTLWTQEHVRQWLEWAIKEYSLMEIDTSFFQNMDGKELCKMNKEDFLRATTLYNTEVLLSHLSYLRES [V11W] | 0.198 ± 0.064
NMTTNERRVICPADPTLWTQEHVRQWLEWAIKEYSLMEIDTSFFQNMDGKELCKMNKEDFLRATTLYNTEVLLSHLSYLRES [V11C] | 0.217 ± 0.089
NMTTNERRVIFPADPTLWTQEHVRQWLEWAIKEYSLMEIDTSFFQNMDGKELCKMNKEDFLRATTLYNTEVLLSHLSYLRES [V11F] | 0.166 ± 0.086
NMTTNERRVIGPADPTLWTQEHVRQWLEWAIKEYSLMEIDTSFFQNMDGKELCKMNKEDFLRATTLYNTEVLLSHLSYLRES [V11G] | 0.061 ± 0.043
NMTTNERRVIQPADPTLWTQEHVRQWLEWAIKEYSLMEIDTSFFQNMDGKELCKMNKEDFLRATTLYNTEVLLSHLSYLRES [V11Q] | -0.024 ± 0.093
NMTTNERRVIDPADPTLWTQEHVRQWLEWAIKEYSLMEIDTSFFQNMDGKELCKMNKEDFLRATTLYNTEVLLSHLSYLRES [V11D] | -0.004 ± 0.077
NMTTNERRVIRPADPTLWTQEHVRQWLEWAIKEYSLMEIDTSFFQNMDGKELCKMNKEDFLRATTLYNTEVLLSHLSYLRES [V11R] | 0.232 ± 0.044
NMTTNERRVIYPADPTLWTQEHVRQWLEWAIKEYSLMEIDTSFFQNMDGKELCKMNKEDFLRATTLYNTEVLLSHLSYLRES [V11Y] | 0.031 ± 0.1
NMTTNERRVIHPADPTLWTQEHVRQWLEWAIKEYSLMEIDTSFFQNMDGKELCKMNKEDFLRATTLYNTEVLLSHLSYLRES [V11H] | -0.032 ± 0.14
NMTTNERRVISPADPTLWTQEHVRQWLEWAIKEYSLMEIDTSFFQNMDGKELCKMNKEDFLRATTLYNTEVLLSHLSYLRES [V11S] | 0.156 ± 0.055
NMTTNERRVIKPADPTLWTQEHVRQWLEWAIKEYSLMEIDTSFFQNMDGKELCKMNKEDFLRATTLYNTEVLLSHLSYLRES [V11K] | 0.148 ± 0.1
NMTTNERRVIEPADPTLWTQEHVRQWLEWAIKEYSLMEIDTSFFQNMDGKELCKMNKEDFLRATTLYNTEVLLSHLSYLRES [V11E] | 0.015 ± 0.067

Variant | abundance fitness
NMTTNERRVIAPADPTLWTQEHVRQWLEWAIKEYSLMEIDTSFFQNMDGKELCKMNKEDFLRATTLYNTEVLLSHLSYLRES [V11A] | 0.118 ± 0.07
NMTTNERRVITPADPTLWTQEHVRQWLEWAIKEYSLMEIDTSFFQNMDGKELCKMNKEDFLRATTLYNTEVLLSHLSYLRES [V11T] | 0.077 ± 0.077
NMTTNERRVINPADPTLWTQEHVRQWLEWAIKEYSLMEIDTSFFQNMDGKELCKMNKEDFLRATTLYNTEVLLSHLSYLRES [V11N] | 0.094 ± 0.1
NMTTNERRVIPPADPTLWTQEHVRQWLEWAIKEYSLMEIDTSFFQNMDGKELCKMNKEDFLRATTLYNTEVLLSHLSYLRES [V11P] | 0.245 ± 0.11
NMTTNERRVIMPADPTLWTQEHVRQWLEWAIKEYSLMEIDTSFFQNMDGKELCKMNKEDFLRATTLYNTEVLLSHLSYLRES [V11M] | 0.114 ± 0.088
NMTTNERRVIVPNDPTLWTQEHVRQWLEWAIKEYSLMEIDTSFFQNMDGKELCKMNKEDFLRATTLYNTEVLLSHLSYLRES [A13N] | 0.183 ± 0.11
NMTTNERRVIVPIDPTLWTQEHVRQWLEWAIKEYSLMEIDTSFFQNMDGKELCKMNKEDFLRATTLYNTEVLLSHLSYLRES [A13I] | 0.048 ± 0.1
NMTTNERRVIVPPDPTLWTQEHVRQWLEWAIKEYSLMEIDTSFFQNMDGKELCKMNKEDFLRATTLYNTEVLLSHLSYLRES [A13P] | 0.162 ± 0.065
NMTTNERRVIVPMDPTLWTQEHVRQWLEWAIKEYSLMEIDTSFFQNMDGKELCKMNKEDFLRATTLYNTEVLLSHLSYLRES [A13M] | -0.036 ± 0.072
NMTTNERRVIVPFDPTLWTQEHVRQWLEWAIKEYSLMEIDTSFFQNMDGKELCKMNKEDFLRATTLYNTEVLLSHLSYLRES [A13F] | -0.081 ± 0.086
NMTTNERRVIVPTDPTLWTQEHVRQWLEWAIKEYSLMEIDTSFFQNMDGKELCKMNKEDFLRATTLYNTEVLLSHLSYLRES [A13T] | 0.051 ± 0.077
NMTTNERRVIVPLDPTLWTQEHVRQWLEWAIKEYSLMEIDTSFFQNMDGKELCKMNKEDFLRATTLYNTEVLLSHLSYLRES [A13L] | -0.003 ± 0.04
NMTTNERRVIVPWDPTLWTQEHVRQWLEWAIKEYSLMEIDTSFFQNMDGKELCKMNKEDFLRATTLYNTEVLLSHLSYLRES [A13W] | 0.023 ± 0.063
NMTTNERRVIVPGDPTLWTQEHVRQWLEWAIKEYSLMEIDTSFFQNMDGKELCKMNKEDFLRATTLYNTEVLLSHLSYLRES [A13G] | 0.123 ± 0.05
NMTTNERRVIVPEDPTLWTQEHVRQWLEWAIKEYSLMEIDTSFFQNMDGKELCKMNKEDFLRATTLYNTEVLLSHLSYLRES [A13E] | 0.189 ± 0.068
NMTTNERRVIVPDDPTLWTQEHVRQWLEWAIKEYSLMEIDTSFFQNMDGKELCKMNKEDFLRATTLYNTEVLLSHLSYLRES [A13D] | 0.121 ± 0.088
